Laboratory results reported in patent US20090092640A1 (UNIVERSITY OF CHICAGO, published 2009).

Target: T1, mutant murine LIGHT (a.a. 79-82, EKLI, deleted), expressed on the cell surface (murine, UniProt Q9QYH9 1-239)
T1 construct: The deletion of a.a; 79-82 is written as two ranges of the natural protein; also called mutant LIGHT; LIGHT^m
T1 sequence: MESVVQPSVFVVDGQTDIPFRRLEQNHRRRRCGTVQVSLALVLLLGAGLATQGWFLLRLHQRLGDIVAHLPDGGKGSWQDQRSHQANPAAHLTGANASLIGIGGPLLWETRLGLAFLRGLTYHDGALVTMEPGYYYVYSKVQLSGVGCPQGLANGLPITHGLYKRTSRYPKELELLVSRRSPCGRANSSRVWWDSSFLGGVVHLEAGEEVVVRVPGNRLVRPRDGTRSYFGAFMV
Assay: flow cytometry and fluorescence microscopy, 293 cells expressing mutant murine LIGHT, stained with murine LTbR-Ig and a labelled anti-Ig
Description: 293 cells, a human kidney cell line, are commonly and easily used for transient expression of gene at relative high level of gene. 293 cells were seeded in 6 well plate and transfected with 2 μg DNA of pAdCMVmLIGHT (wild type murine LIGHT), pAdCMVmmLIGHT (mutant murine LIGHT) or pAdCMVcommLIGHT (codon optimized mutant murine LIGHT by GNENART, Berlin, Germany). Codon modification is to optimize gene codon to allow higher expression of protein without changing protein sequences. Transfection was performed using Lipofectmin 2000 reagent. 48 hours after transfection, cells were detached and incubated with recombinant mLTbR-huFc protein (10 μg/ml) followed by staining with PE conjugated Donkey anti-human IgG antisera. Cells were washed and analyzed by flowcytometry (BD FACSArray Bioanalyzer). Transfection were carried out in triplicates and only one representative result is shown. […] Cells were also examined visually by fluorescent microscopy. Representative results are shown in lower panel. (see FIG. 18). High expression of LIGHT is required to have stronger response. However, protease digestion of LIGHT often reduces its stability on cell surface.

B1: recombinant mLTbR-huFc protein (Fc fusion, mouse, UniProt P50284 31-223, looked up)
chain: QLVPPYRIENQTCWDQDKEYYEPMHDVCCSRCPPGEFVFAVCSRSQDTVCKTCPHNSYNEHWNHLSTCQLCRPCDIVLGFEEVAPCTSDRKAECRCQPGMSCVYLDNECVHCEEERLVLCQPGTEAEVTDEIMDTDVNCVPCKPGHFQNTSSPRARCQPHTRCEIQGLVEAAPGTSYSDTICKNPPEPGAMLL
notes: also called mouse LTbR-Ig; murine LTbR-Ig; not shown: human Fc
  binding result: binds
